Here are results for 7 molecules from patent publication US20150344570A1 (published 2015).

The labels stand for the following.
B1: GpH7-A5/GpH7-B3 variant S267_08L/GpL16-k0 (antibody, human IgG1, kappa)
heavy 1: not shown
heavy 2: not shown
light: DIVMTQSPLSLPVTPGEPASISCQASESLVHSNRNTYLHWYLQKPGQSPQLLIYKVSNRFSGVPDRFSGSGSGTDFTLKISRVEAEDVGVYYCSQNTHVPPTFGQGTKVEIERTVAAPSVFIFPPSDEQLKSGTASVVCLLNNFYPREAKVQWKVDNALQSGNSQESVTEQDSKDSTYSLSSTLTLSKADYEKHKVYACEVTHQGLSSPVTKSFNRGEC
notes: Heterodimerized antibody (He Ab) with the mutation in only one H chain; also called He Ab S267L
B2: GpH7-A5/GpH7-B3 variant H268_02A/GpL16-k0 (antibody, human IgG1, kappa)
heavy 1: not shown
heavy 2: not shown
light: B1 light
notes: Heterodimerized antibody (He Ab) with the mutation in only one H chain; also called He Ab H268A
B3: GpH7-A5/GpH7-B3 variant H268_18N/GpL16-k0 (antibody, human IgG1, kappa)
heavy 1: not shown
heavy 2: not shown
light: B1 light
notes: Heterodimerized antibody (He Ab) with the mutation in only one H chain; also called He Ab H268N
B4: GpH7-A5/GpH7-B3 variant S267_09D/GpL16-k0 (antibody, human IgG1, kappa)
heavy 1: not shown
heavy 2: not shown
light: B1 light
notes: Heterodimerized antibody (He Ab) with the mutation in only one H chain; also called He Ab S267D
B5: GpH7-A5/GpH7-B3 variant P271_01G/GpL16-k0 (antibody, human IgG1, kappa)
heavy 1: not shown
heavy 2: not shown
light: B1 light
notes: Heterodimerized antibody (He Ab) with the mutation in only one H chain; also called He Ab P271G
B6: GpH7-A5/GpH7-B3 variant H268_13S/GpL16-k0 (antibody, human IgG1, kappa)
heavy 1: not shown
heavy 2: not shown
light: B1 light
notes: Heterodimerized antibody (He Ab) with the mutation in only one H chain; also called He Ab H268S
B7: GpH7-A5/GpH7-B3 variant P271_08L/GpL16-k0 (antibody, human IgG1, kappa)
heavy 1: not shown
heavy 2: not shown
light: B1 light
notes: Heterodimerized antibody (He Ab) with the mutation in only one H chain; also called He Ab P271L

T1 sequence (P08637 17-208): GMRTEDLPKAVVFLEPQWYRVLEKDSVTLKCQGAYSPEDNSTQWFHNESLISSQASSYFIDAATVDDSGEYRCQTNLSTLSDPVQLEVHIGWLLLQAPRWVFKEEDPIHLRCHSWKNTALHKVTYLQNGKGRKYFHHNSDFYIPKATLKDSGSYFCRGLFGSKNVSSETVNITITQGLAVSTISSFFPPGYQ

The first test has as its target T1, FcγRIIIa extracellular domain with C-terminal His tag (human, UniProt P08637 17-208).
T1 construct: extracellular domain; also called FcgRIIIa; 3a; not shown: His tag attached to the C terminus
In words: SPR (Biacore); He/Con_3a (FcγRIIIa) divided by He/Con_2b (FcγRIIb).
Take B1: the “He_3a/2b (IIIa/IIb)” value came to 0.18 ratio.
For B2, the “He_3a/2b (IIIa/IIb)” value stood at 0.73 ratio.
Consider B3, for which the “He_3a/2b (IIIa/IIb)” value is 0.67 ratio.
Consider B4, for which the “He_3a/2b (IIIa/IIb)” value was found to be 0.58 ratio.
B5: the “He_3a/2b (IIIa/IIb)” value was found to be 0.59 ratio.
Still for that read-out and setting: the value for B6 was 0.76 ratio; that for B7 was 0.69 ratio.

The next test has as its target T2, FcγRIIb extracellular domain with C-terminal His tag (human, UniProt P31994 43-217).
T2 construct: extracellular domain; Soluble receptor expressed in FreeStyle293 cells, used as analyte in Biacore; also called FcgRIIb; 2b; not shown: His tag attached to the C terminus
T2 sequence (looked up): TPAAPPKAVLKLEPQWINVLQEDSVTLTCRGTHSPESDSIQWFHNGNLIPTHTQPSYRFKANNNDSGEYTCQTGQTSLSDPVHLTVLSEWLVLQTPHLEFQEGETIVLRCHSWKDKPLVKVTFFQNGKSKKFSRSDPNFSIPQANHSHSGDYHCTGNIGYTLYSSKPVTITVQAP
Kind of test: SPR (Biacore T100), antibody captured on antigen peptide chip, FcγR as analyte. The protocol:
(§1) Analysis of interaction between objective antibody and the FcγR was carried out using Biacore T100 (GE Healthcare). HBS-EP+ (GE Healthcare) was used as the running buffer, and the measurement temperature was set to 25° C. Chips produced by immobilizing the antigen peptide by the amine coupling method to a Series S Sencor Chip CM5 (GE Healthcare), or alternatively, chips produced by allowing preliminarily biotinylated antigen peptides to interact with and immobilize onto a Series S Sensor Chip SA (certified) (GE Healthcare) were used. Antibodies of interest were captured onto an antigen peptide-immobilized chip, and allowed to interact to each FcγR diluted with running buffer. To regenerate and repeatedly use the chip, the antibodies captured on the chip were washed off by reacting 10 mM glycine-HCl, pH 1.5.
On to B1, for which the He/Con_2b was 109 relative binding, GpH7-A5/GpH7-B3/GpL16-k0 = 100.
Turning to B2, the He/Con_2b was 167 relative binding, GpH7-A5/GpH7-B3/GpL16-k0 = 100.
On to B3, for which the He/Con_2b is 156 relative binding, GpH7-A5/GpH7-B3/GpL16-k0 = 100.
As for B4, the He/Con_2b is 310 relative binding, GpH7-A5/GpH7-B3/GpL16-k0 = 100.
Consider B5, for which the He/Con_2b is 193 relative binding, GpH7-A5/GpH7-B3/GpL16-k0 = 100.
Turning to B6, the He/Con_2b was 160 relative binding, GpH7-A5/GpH7-B3/GpL16-k0 = 100.
Consider B7, for which the He/Con_2b is 103 relative binding, GpH7-A5/GpH7-B3/GpL16-k0 = 100.

A further test deals with T1, FcγRIIIa extracellular domain with …. The test is described as above. The procedure: as §1
As to B1, the He/Con_3a is 19.5 relative binding, GpH7-A5/GpH7-B3/GpL16-k0 = 100.
For B2, the He/Con_3a is 122 relative binding, GpH7-A5/GpH7-B3/GpL16-k0 = 100.
Still for that read-out and setting: the value for B3 was 104 relative binding, GpH7-A5/GpH7-B3/GpL16-k0 = 100; that for B4 was 181 relative binding, GpH7-A5/GpH7-B3/GpL16-k0 = 100.
For the molecule B5, the He/Con_3a was 113 relative binding, GpH7-A5/GpH7-B3/GpL16-k0 = 100.
Regarding B6, the He/Con_3a was 122 relative binding, GpH7-A5/GpH7-B3/GpL16-k0 = 100.
Same read-out and setting: then B7, with 71 relative binding, GpH7-A5/GpH7-B3/GpL16-k0 = 100.
